Data reported in patent publication US20250011363A1, “OPTIMIZED SHORTENED PEPTIDE THAT BINDS TO ACETYLCHOLINE RECEPTOR, AND USE THEREOF” (SKINMED CO., LTD., priority 2021, published 2025).

target: acetylcholine receptor; test: SPR, AchR on CM5 chip, peptide 10 µM

Binder	Binding affinity (RU)
RRHTMR [6mer-1-1177]	21 RU
KKMENR [6mer-1-1139]	36 RU
KKTCHR [6mer-1-1182]	35 RU
KKIEIK [6mer-1-1136]	34 RU
KKETPR [6mer-1-1142]	24 RU
KKEMMK [6mer-1-1185]	29 RU
RKYKEK [6mer-1-1152]	23 RU
RRHAHK [6mer-1-1187]	26 RU
KRFTDK [6mer-1-1137]	33 RU
KKYNPK [6mer-1-1170]	25 RU
RRATWR [6mer-1-1165]	29 RU
RRCSHR [6mer-1-1148]	31 RU
KKMMPK [6mer-1-1146]	34 RU
KRDCFR [6mer-1-1138]	21 RU
RKKMAK [6mer-1-1178]	29 RU
RKMTPK [6mer-1-1149]	30 RU
KRNMHK [6mer-1-1141]	40 RU
KRMTPR [6mer-1-1179]	40 RU
KRHMMK [6mer-1-1167]	42 RU
KRYTVR [6mer-1-1156]	37 RU
KKCDHR [6mer-1-1162]	41 RU
KKADHK [6mer-1-1176]	21 RU
KKEKFR [6mer-1-1168]	40 RU
RKAPHR [6mer-1-1147]	35 RU
RKCAFK [6mer-1-1163]	21 RU
RRAWPR [6mer-1-1159]	39 RU

The remaining lines, values ahead:

Binding affinity (RU)	Binder
22 RU	KKEEKR [6mer-1-1166]
33 RU	RKPMMK [6mer-1-1158]
26 RU	KKIPMK [6mer-1-1173]
30 RU	RKDAIR [6mer-1-1174]
21 RU	RRMDAK [6mer-1-1181]
34 RU	KRPPPK [6mer-1-1180]
40 RU	RRDCKK [6mer-1-1145]
34 RU	KRKWWR [6mer-1-1150]
23 RU	RKHNKK [6mer-1-1153]
32 RU	KRHEFK [6mer-1-1143]
36 RU	RKESVR [6mer-1-1157]
26 RU	KKHTER [6mer-1-1135]
22 RU	KRMSWK [6mer-1-1134]
23 RU	RRFNFR [6mer-1-1172]
43 RU	KRATMK [6mer-1-1140]
25 RU	KKCMGR [6mer-1-1144]
29 RU	RRDWAK [6mer-1-1160]
24 RU	KKPNIK [6mer-1-1133]
35 RU	RKIHNK [6mer-1-1183]
23 RU	RKTWEK [6mer-1-1175]
41 RU	KKHHAK [6mer-1-1164]
34 RU	KKKEAK [6mer-1-1151]
28 RU	RKKEKR [6mer-1-1155]
41 RU	RRMNER [6mer-1-1188]
37 RU	KKNNAK [6mer-1-1186]
32 RU	RKMDIR [6mer-1-1169]
40 RU	RKIAFK [6mer-1-1171]
30 RU	RRDTVK [6mer-1-1184]
40 RU	KRHWVK [6mer-1-1161]
41 RU	RKCEKR [6mer-1-1154]
